Data reported in US20060035823A1 (published 2006).

Columns and labels:
[1] = target: GAL4 BD/TRAF-4 fusion (pGBT9/TRAF-4) (UniProt P04386 1-147; Q9BUZ4 1-470, limits assumed); assay: yeast two-hybrid (β-gal, growth without His)
[2] = target: GAL4 BD/TRAF-5 fusion (pGBT9/TRAF-5) (UniProt P04386 1-147; O00463 1-557, limits assumed); assay: yeast two-hybrid (β-gal, growth without His)
[3] = target: GAL4 BD/TRAF-2 fusion (pGBT9/TRAF-2) (UniProt P04386 1-147; Q12933 1-501, limits assumed); assay: yeast two-hybrid (β-gal, growth without His)
[4] = target: GAL4 BD/TRAF-6 fusion (pGBT9/TRAF-6) (UniProt P04386 1-147; Q9Y4K3 1-522, limits assumed); assay: yeast two-hybrid (β-gal, growth without His)
[5] = target: T1, HA-tagged β-galactosidase (pCGN/LacZ) (UniProt P00722 1-1024 = β-galactosidase); assay: co-immunoprecipitation from 293T lysates, anti-HA IP, anti-X-press blot
T1 construct: Specificity control, over-expressed in 293T cells; also called HA-LacZ; RA-LacZ; not shown: N-terminal hemagglutinin (HA) tag of vector pCGN
T1 sequence (P00722 whole entry): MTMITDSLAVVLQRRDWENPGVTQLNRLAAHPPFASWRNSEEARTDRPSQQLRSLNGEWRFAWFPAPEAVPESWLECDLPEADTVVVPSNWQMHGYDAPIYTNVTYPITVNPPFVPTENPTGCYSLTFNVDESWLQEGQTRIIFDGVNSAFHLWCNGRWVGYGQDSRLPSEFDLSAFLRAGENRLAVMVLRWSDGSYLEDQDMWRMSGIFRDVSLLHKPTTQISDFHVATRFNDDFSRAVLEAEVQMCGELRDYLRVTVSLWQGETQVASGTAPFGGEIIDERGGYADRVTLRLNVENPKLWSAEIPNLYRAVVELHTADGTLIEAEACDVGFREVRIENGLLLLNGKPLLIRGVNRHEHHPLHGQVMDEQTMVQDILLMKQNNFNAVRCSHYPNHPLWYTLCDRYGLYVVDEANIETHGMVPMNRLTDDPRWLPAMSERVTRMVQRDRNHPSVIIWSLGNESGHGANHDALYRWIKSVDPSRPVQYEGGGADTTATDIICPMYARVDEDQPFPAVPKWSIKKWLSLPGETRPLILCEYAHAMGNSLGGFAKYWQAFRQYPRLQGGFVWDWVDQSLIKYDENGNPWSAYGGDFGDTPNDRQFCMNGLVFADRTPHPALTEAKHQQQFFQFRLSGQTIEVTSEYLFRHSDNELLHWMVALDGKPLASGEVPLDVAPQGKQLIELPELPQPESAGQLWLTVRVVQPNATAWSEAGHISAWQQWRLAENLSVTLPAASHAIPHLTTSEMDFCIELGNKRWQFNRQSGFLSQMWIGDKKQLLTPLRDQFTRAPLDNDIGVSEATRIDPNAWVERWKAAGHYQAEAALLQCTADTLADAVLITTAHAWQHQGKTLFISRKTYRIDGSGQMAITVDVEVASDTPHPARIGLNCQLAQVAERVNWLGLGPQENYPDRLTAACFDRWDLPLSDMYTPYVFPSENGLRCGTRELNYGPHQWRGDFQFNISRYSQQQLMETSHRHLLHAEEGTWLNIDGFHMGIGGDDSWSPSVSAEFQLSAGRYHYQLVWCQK
Experimental: Samples were separated by 10% SDS PAGE and transferred to Immobilon-P PVDF membranes (Millipore Corporation, Bedford, Mass.). Membranes were washed with 1× Tris Buffered Saline (TBS) containing 50 mM Tris pH 7.5 (Fisher Scientific) and 150 mM sodium chloride (Fisher Scientific), and then blocked in 1% Blocking Reagent (Roche Molecular Biochemicals) dissolved in 1×TBS.
(§1) Membranes were probed with anti-Xpress, diluted 1:5000 in 0.5% Blocking Reagent, or anti-HA (12CA5) at 0.4 μg/ml (Roche Molecular Biochemicals) in 0.5% Blocking Reagent. Membranes were incubated for 1 hour, then washed twice with TBS containing 0.1% Tween-20 (Sigma Chemical Co.) (1× TBST) and twice with 0.5% Blocking Reagent. Membranes were incubated with anti-mouse IgG-Peroxidase (Roche Molecular Biochemicals) at 1:2500 in 0.5% Blocking Reagent for 60 minutes at room temperature, then washed 4 times in 1× TBST. Proteins were detected with the BM Chemiluminescence Blotting Substrate (POD) (Roche Molecular Biochemicals). Following detection, membranes were stripped of antibodies by incubation with stripping solution containing 62.5 mM Tris pH 6.7, 2% SDS, and 50 mM 2-mercaptoethanol (Fisher Scientific) for 30 minutes at 50° C. The membranes were rinsed with distilled water and then with 1×TBS. The stripped membranes were blocked and reprobed with antibodies as described above.

[6] = target: T2, GAL4 DNA-binding domain (BD)/full-length TRAF-3 fusion construct (pGBT9/TRAF-3) (human, UniProt P04386 1-147; Q13114 1-568); assay: yeast two-hybrid
T2 construct: Yeast two-hybrid fusion expressed in yeast Y190; BD is put first as in the vector; also called BD/TRAF-3; bait construct

[7] = target: T3, His-tagged TRAF-2 (pEBVHis/TRAF-2) (UniProt Q12933 1-501); assay: co-immunoprecipitation from 293T lysates, anti-X-press IP, anti-HA blot
T3 construct: Specificity control, over-expressed in 293T cells
T3 sequence (looked up): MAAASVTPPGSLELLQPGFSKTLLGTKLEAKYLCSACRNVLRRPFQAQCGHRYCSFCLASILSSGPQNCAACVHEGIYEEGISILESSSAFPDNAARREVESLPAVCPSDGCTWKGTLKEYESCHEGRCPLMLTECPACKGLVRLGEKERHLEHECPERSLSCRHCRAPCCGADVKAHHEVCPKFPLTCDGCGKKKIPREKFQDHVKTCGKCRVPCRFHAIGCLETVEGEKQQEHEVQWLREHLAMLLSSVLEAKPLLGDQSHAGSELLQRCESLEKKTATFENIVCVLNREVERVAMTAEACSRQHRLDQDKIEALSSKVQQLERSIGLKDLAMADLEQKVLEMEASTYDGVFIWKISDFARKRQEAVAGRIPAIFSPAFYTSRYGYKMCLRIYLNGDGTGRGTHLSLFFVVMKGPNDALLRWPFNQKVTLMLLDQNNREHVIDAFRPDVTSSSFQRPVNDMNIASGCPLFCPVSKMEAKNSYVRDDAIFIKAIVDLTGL
Experimental: Membranes were washed with 1× Tris Buffered Saline (TBS) containing 50 mM Tris pH 7.5 (Fisher Scientific) and 150 mM sodium chloride (Fisher Scientific), and then blocked in 1% Blocking Reagent (Roche Molecular Biochemicals) dissolved in 1×TBS.
as §1

[8] = target: GAL4 BD fusion of TRAF-3 aa 267-343 (coiled-coil domain only), in pGBT9 (human, UniProt P04386 1-147; Q13114 267-343); assay: yeast two-hybrid
[9] = target: T4, GAL4 BD fusion of TRAF-3 aa 110-265 (Zn fingers only), in pGBT9 (human, UniProt P04386 1-147; Q13114 110-265); assay: yeast two-hybrid
T4 construct: The range is printed without its hyphen

B1: GAL4 AD fusion of p62 nucleoporin aa 270-522 (pACT/p62(270-522)) (other, UniProt P37198 270-522, looked up, not shown: large carriers)
chain: TTSTAATATATTTSSSSTTGFALNLKPLAPAGIPSNTAAAVTAPPGPGAAAGAAASSAMTYAQLESLINKWSLELEDQERHFLQQATQVNAWDRTLIENGEKITSLHREVEKVKLDQKRLDQELDFILSQQKELEDLLSPLEELVKEQSGTIYLQHADEEREKTYKLAENIDAQLKRMAQDLKDIIEHLNTSGAPADTSDPLQQICKILNAHMDSLQWIDQNSALLQRKVEEVTKVCEGRRKEQERSFRITFD
Question: What does the source list for B1?
Answer: binding result [1]: no binding; binding result [2]: no binding; binding result [3]: no binding; binding result [4]: no binding

B2: His-tagged TRAF-3 (pEBVHis/TRAF-3), amino-terminal poly-histidine tag and X-press epitope (other, human, UniProt Q13114 1-568, looked up, not shown: small tags and cut ends)
chain: MESSKKMDSPGALQTNPPLKLHTDRSAGTPVFVPEQGGYKEKFVKTVEDKYKCEKCHLVLCSPKQTECGHRFCESCMAALLSSSSPKCTACQESIVKDKVFKDNCCKREILALQIYCRNESRGCAEQLMLGHLLVHLKNDCHFEELPCVRPDCKEKVLRKDLRDHVEKACKYREATCSHCKSQVPMIALQKHEDTDCPCVVVSCPHKCSVQTLLRSELSAHLSECVNAPSTCSFKRYGCVFQGTNQQIKAHEASSAVQHVNLLKEWSNSLEKKVSLLQNESVEKNKSIQSLHNQICSFEIEIERQKEMLRNNESKILHLQRVIDSQAEKLKELDKEIRPFRQNWEEADSMKSSVESLQNRVTELESVDKSAGQVARNTGLLESQLSRHDQMLSVHDIRLADMDLRFQVLETASYNGVLIWKIRDYKRRKQEAVMGKTLSLYSQPFYTGYFGYKMCARVYLNGDGMGKGTHLSLFFVIMRGEYDALLPWPFKQKVTLMLMDQGSSRRHLGDAFKPDPNSSSFKKPTGEMNIASGCPVFVAQTVLENGTYIKDDTIFIKVIVDTSDLPDP
notes: Over-expressed in 293T cells; tested in cell lysates
Question: Does B2 bind [5]?
Answer: Result: no binding

B3: GAL4 AD fusion of p62 nucleoporin aa 302-391 (deletion mutant in pGAD424) (other, not shown: large carriers; small tags and cut ends)
chain: IPSNTAAAVTAPPGPGAAAGAAASSAMTYAQLESLINKWSLELEDQERHFLQQATQVNAWDRTLIENGEKITSLHREVEKVKLDQKRLDQ
Question: Does B3 bind [6]?
Answer: Result: no binding

B4: HA-tagged p62(336-522) (pCGN/p62(336-522)), N-terminal hemagglutinin tag (other)
chain: LINKWSLELEDQERHFLQQATQVNAWDRTLIENGEKITSLHREVEKVKLDQKRLDQELDFILSQQKELEDLLSPLEELVKEQRATIYLQHADEERQKTYKLAENIDAQLKRMAQDLKDIIEHLNTSGAPADTSDPLQQICKILNAHMDSLQWIDQNSALLQRKVEEVTKVCVGRRKEQERSFRITFD
notes: not shown: N-terminal hemagglutinin (HA) tag of vector pCGN
Question: Does B4 bind [7]?
Answer: Result: no binding

B5: GAL4 AD fusion of p62 nucleoporin aa 336-522 (pACT/p62(336-522)) (other, not shown: large carriers)
chain: B4 chain
Question: Does B5 bind [8]?
Answer: Result: no binding

Question: Does B5 bind [9]?
Answer: Result: no binding
